From publication PMC6238398, “The crystal structure of Staufen1 in complex with a physiological RNA sheds light on substrate selectivity” (Life Science Alliance, 2018)
Numbering of substitutions follows the chain as printed.

What was measured:
[1] = biological target: T1, dStau S581A Q718A (Drosophila melanogaster, UniProt P25159 570-786, S581A;Q718A); assay: fluorescence anisotropy; FA: 10 nM 5'-FAM RNA, 20 mM Hepes pH 7.5, 150 mM KCl, RT (19-21 C); EMSA: 1 uM RNA, same buffer, 45 min on ice; details: protein: recombinant; label: 5'-6-FAM; hairpin
T1 sequence: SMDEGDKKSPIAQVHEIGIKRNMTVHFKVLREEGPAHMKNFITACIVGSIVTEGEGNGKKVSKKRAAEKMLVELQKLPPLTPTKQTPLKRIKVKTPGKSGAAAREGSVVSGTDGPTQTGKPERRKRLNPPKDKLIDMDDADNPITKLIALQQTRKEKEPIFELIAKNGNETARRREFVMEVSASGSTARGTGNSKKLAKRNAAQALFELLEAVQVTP

[2] = biological target: T2, dStau dsRBD4 backbone mutant (Drosophila melanogaster, UniProt P25159 570-786, R742A;R744A;K764E;K765A;K768A); assay: as above; details: protein: recombinant; label: 5'-6-FAM; hairpin
T2 sequence: T1 sequence with A12S, A149Q, R173A, R175A, K195E, K196A, K199A

[3] = biological target: T3, dStau dsRBD3 backbone mutant (Drosophila melanogaster, UniProt P25159 570-786, H606A;K608A;K628E;K629A); assay: as above; details: protein: recombinant; label: 5'-6-FAM; hairpin
T3 sequence: T1 sequence with A12S, H37A, K39A, K59E, K60A, A149Q

[4] = biological target: T4, hStau1 FL (Homo sapiens, UniProt O95793 1-577); assay: as above; details: protein: recombinant, tags: tag removed or His/GST not specified, chain copies: 2
[5] = biological target: the molecule itself; assay: SEC + SEC-MALS; apo proteins on Superdex 200 Increase 10/300 GL with MALLS detector; 20 mM Tris-HCl pH 7.5, 150 mM KCl, RT; 200 ug FL, 350 ug hStau1 182-577 injected
[6] = biological target: hStau1 base-contact mutant (Homo sapiens, UniProt O95793 182-360, S187A;P211A;Q293A); assay: fluorescence anisotropy; FA: 10 nM 5'-FAM RNA, 20 mM Hepes pH 7.5, 150 mM KCl, RT (19-21 C); EMSA: 1 uM RNA, same buffer, 45 min on ice; details: protein: recombinant, blunt
Sequence of hStau1 base-contact mutant (O95793 182-360 S187A/P211A/Q293A): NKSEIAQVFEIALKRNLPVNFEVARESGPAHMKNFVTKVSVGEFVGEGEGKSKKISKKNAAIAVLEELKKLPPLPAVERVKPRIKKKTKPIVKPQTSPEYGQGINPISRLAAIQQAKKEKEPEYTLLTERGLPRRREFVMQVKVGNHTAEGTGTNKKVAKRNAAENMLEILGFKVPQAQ

[7] = biological target: hStau1 dsRBD3-4 interface mutant (Homo sapiens, UniProt O95793 182-360, N197A;R342A); assay: fluorescence anisotropy; no effect on affinity vs wt; FA: 10 nM 5'-FAM RNA, 20 mM Hepes pH 7.5, 150 mM KCl, RT (19-21 C); EMSA: 1 uM RNA, same buffer, 45 min on ice; details: protein: recombinant; label: 5'-6-FAM on sense strand; blunt, two G-U wobbles
Sequence of hStau1 dsRBD3-4 interface mutant (O95793 182-360 N197A/R342A): as the sequence (O95793 182-360 S187A/P211A/Q293A) above, with A6S, N16A, A30P, A112Q, R161A counted along it

[8] = biological target: hStau1 dsRBD3-4 (Homo sapiens, UniProt O95793 182-360); assay: fluorescence anisotropy; FA: 10 nM 5'-FAM RNA, 20 mM Hepes pH 7.5, 150 mM KCl, RT (19-21 C); EMSA: 1 uM RNA, same buffer, 45 min on ice; details: protein: recombinant; tags: untagged; chain copies: 2; label: 5'-6-FAM on sense strand; blunt, two G-U wobbles
[9] = biological target: hStau1 deltaC (SSM and dsRBD5 removed) (Homo sapiens, UniProt O95793 1-360); assay: as above; details: protein: recombinant; label: 5'-6-FAM on sense strand; blunt, two G-U wobbles
[10] = biological target: hStau1 deltaN (dsRBD2 removed) (Homo sapiens, UniProt O95793 182-577); assay: as above; details: protein: recombinant; label: 5'-6-FAM on sense strand; blunt, two G-U wobbles
[11] = biological target: GST-hStau1 dsRBD3-4 (Homo sapiens, UniProt O95793 182-360); assay: as above; details: protein: recombinant; tags: N-terminal GST; label: 5'-6-FAM on sense strand; blunt, two G-U wobbles
[12] = biological target: hStau1 dsRBD4 backbone mutant (Homo sapiens, UniProt O95793 182-360, R315A;R317A;K337E;K338A;K341A); assay: as above; details: protein: recombinant; label: 5'-6-FAM on sense strand; blunt, two G-U wobbles
[13] = biological target: hStau1 dsRBD3 backbone mutant (Homo sapiens, UniProt O95793 182-360, H212A;K214A;K234E;K235A;K238A); assay: as above; details: protein: recombinant; label: 5'-6-FAM on sense strand; blunt, two G-U wobbles
[14] = biological target: GST-hStau1 dsRBD4 (Homo sapiens, UniProt O95793 284-358); assay: as above; details: protein: recombinant; tags: N-terminal GST; label: 5'-6-FAM on sense strand; blunt, two G-U wobbles
[15] = biological target: GST-hStau1 dsRBD3 (Homo sapiens, UniProt O95793 182-255); assay: as above; details: protein: recombinant; tags: N-terminal GST; label: 5'-6-FAM on sense strand; blunt, two G-U wobbles
[16] = biological target: hStau1 dsRBD3-4 linker charge mutant (Homo sapiens, UniProt O95793 182-360, K266A;K267E;K268A;K270A); assay: as above; details: protein: recombinant; label: 5'-6-FAM on sense strand; blunt, two G-U wobbles
[17] = biological target: hStau1 dsRBD3-4 short linker (Homo sapiens, UniProt O95793 182-253+=GSSGSGSS+284-360, internal_change); assay: as above; details: protein: recombinant; label: 5'-6-FAM on sense strand; blunt, two G-U wobbles
[18] = biological target: T4, hStau1 FL; assay: as above; details: protein: recombinant; tags: tag removed or His/GST not specified; chain copies: 2; label: 5'-6-FAM; blunt

B1: bcd III (structured_RNA)
RNA: CGCUAUUCGCCUUAGAUGUAUCUGGGUGGCUGCUCCACUAAAGCCCGGGAAUAUGCAACCAGUUACAUUUGAGGCCAUUUGGGCUUAAGCG
**Q.** Which results are given for B1?
**A.** binding signal [1]: ~3.5 fold reduction vs wt; binding signal [2]: < 3 fold reduction vs wt; binding signal [3]: ~10 fold reduction vs wt (almost)

**Q.** How did the Kd ([4]; label: 5'-6-FAM, single strand) turn out when UGAGUGCCAGAAGCUGCCUC (ssRNA) [ssARF1 (sense strand)] was run?
**A.** The Kd was 96 ± 27 nM.

B2: hStau1 aa 182-577 (N-terminal deletion removing dsRBD2) (domain or fragment, human, UniProt O95793 182-577, looked up)
chain: NKSEISQVFEIALKRNLPVNFEVARESGPPHMKNFVTKVSVGEFVGEGEGKSKKISKKNAAIAVLEELKKLPPLPAVERVKPRIKKKTKPIVKPQTSPEYGQGINPISRLAQIQQAKKEKEPEYTLLTERGLPRRREFVMQVKVGNHTAEGTGTNKKVAKRNAAENMLEILGFKVPQAQPTKPALKSEEKTPIKKPGDGRKVTFFEPGSGDENGTSNKEDEFRMPYLSHQQLPAGILPMVPEVAQAVGVSQGHHTKDFTRAAPNPAKATVTAMIARELLYGGTSPTAETILKNNISSGHVPHGPLTRPSEQLDYLSRVQGFQVEYKDFPKNNKNEFVSLINCSSQPPLISHGIGKDVESCHDMAALNILKLLSELDQQSTEMPRTGNGPMSVCGRC
notes: human Staufen1 (hStau1), GenBank AAD17531.1, aa 182-577 (dsRBD3, dsRBD4, TBD, SSM, dsRBD5); GST was kept or cleaved; also called hStau1^182-577
**Q.** Which “stoichiometry N” value [5] does the source give for B2 here?
**A.** The value was 2.

B3: human Staufen1 full-length (natural protein, UniProt O95793 1-577, looked up)
chain: MSQVQVQVQNPSAALSGSQILNKNQSLLSQPLMSIPSTTSSLPSENAGRPIQNSALPSASITSTSAAAESITPTVELNALCMKLGKKPMYKPVDPYSRMQSTYNYNMRGGAYPPRYFYPFPVPPLLYQVELSVGGQQFNGKGKTRQAAKHDAAAKALRILQNEPLPERLEVNGRESEEENLNKSEISQVFEIALKRNLPVNFEVARESGPPHMKNFVTKVSVGEFVGEGEGKSKKISKKNAAIAVLEELKKLPPLPAVERVKPRIKKKTKPIVKPQTSPEYGQGINPISRLAQIQQAKKEKEPEYTLLTERGLPRRREFVMQVKVGNHTAEGTGTNKKVAKRNAAENMLEILGFKVPQAQPTKPALKSEEKTPIKKPGDGRKVTFFEPGSGDENGTSNKEDEFRMPYLSHQQLPAGILPMVPEVAQAVGVSQGHHTKDFTRAAPNPAKATVTAMIARELLYGGTSPTAETILKNNISSGHVPHGPLTRPSEQLDYLSRVQGFQVEYKDFPKNNKNEFVSLINCSSQPPLISHGIGKDVESCHDMAALNILKLLSELDQQSTEMPRTGNGPMSVCGRC
notes: human Staufen1 (hStau1), GenBank AAD17531.1, codon optimized; full-length protein; the truncation 182-577 implies a length of 577 aa; Constructs carried either an N-terminal GST tag or a His tag; The His tag was removed by TEV; the GST tag was either kept (elution with glutathione) or cleaved by TEV; also called hStau1 FL; hStau1
**Q.** With B3 as the binder, how does the “stoichiometry N” value [5] read?
**A.** The value was 2.

B4: ARF1 SBS (dsRNA)
RNA 1: UGAGUGCCAGAAGCUGCCUC
RNA 2: GAGGCAGUUUCUGGUACUCA
**Q.** Which results are given for B4?
**A.** binding signal ([6]; label: 5'-6-FAM on sense strand, two G-U wobbles): ~3 fold reduction vs wt; binding result [7]: binds; Kd [8]: 14 ± 4 nM; Kd ([4]; label: 5'-6-FAM on sense strand, blunt, two G-U wobbles): 6 ± 1 nM; Kd [9]: 10 ± 2 nM; Kd [10]: 9 ± 3 nM; Kd [11]: 9 ± 2 nM; binding signal [12]: ~4.5 fold reduction vs wt; binding signal [13]: ~8 fold reduction vs wt; binding signal [14]: ~1000 fold reduction vs tandem dsRBD3-4; binding signal [15]: ~10 fold reduction vs tandem dsRBD3-4; binding signal [16]: ~3 fold reduction vs wt; binding signal [17]: ~8 fold reduction vs wt

B5: dsAU (dsRNA)
RNA 1: UAUUAUAUAAAUUAUAAAAU
RNA 2: AUUUUAUAAUUUAUAUAAUA
**Q.** With B5 as the binder, how does the binding signal ([6]; label: 5'-6-FAM) read?
**A.** Its binding signal is ~1.5 fold reduction vs wt on dsAU.

**Q.** And the binding signal [18]?
**A.** The binding signal was ~4 fold reduction vs ARF1 SBS.
